The record followed here is patent US20240158538A1 (HUMMINGBIRD BIOSCIENCE HOLDINGS PTE, published 2024).

Changes are numbered by the printed parent chain. Like-named read-outs stand apart in the source and are kept apart here.

The target of experiment [1] is T1, PD-1 (ELISA coat) (human, UniProt Q15116 25-167, limits assumed).
T1 construct: Species read from the list 'human VISTA, PD-1, PD-L1, ...'
Kind of experiment: ELISA, plate coated with PD1. (ELISA stands for enzyme-linked immunosorbent assay.)

The target of experiment [2] is T2, B7H3 (ELISA coat) (human, UniProt Q5ZPR3 29-461, limits assumed).
T2 construct: Species read from the list 'human VISTA, PD-1, PD-L1, ...'; also called CD276
T2 sequence (looked up): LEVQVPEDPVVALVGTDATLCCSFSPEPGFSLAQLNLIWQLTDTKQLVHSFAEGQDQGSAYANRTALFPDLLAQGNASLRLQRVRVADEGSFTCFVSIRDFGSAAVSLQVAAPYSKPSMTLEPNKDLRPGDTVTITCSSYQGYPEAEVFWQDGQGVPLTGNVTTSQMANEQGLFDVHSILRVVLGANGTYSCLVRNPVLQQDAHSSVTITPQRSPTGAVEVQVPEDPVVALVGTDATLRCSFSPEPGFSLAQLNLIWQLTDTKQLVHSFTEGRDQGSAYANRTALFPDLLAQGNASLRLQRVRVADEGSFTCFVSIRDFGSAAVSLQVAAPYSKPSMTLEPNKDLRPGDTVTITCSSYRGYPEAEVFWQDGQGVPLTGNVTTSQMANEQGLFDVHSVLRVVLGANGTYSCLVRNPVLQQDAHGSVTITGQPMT
Description: ELISA, plate coated with B7H3.

The target of experiment [3] is T3, B7H4 (ELISA coat) (human, UniProt Q7Z7D3 25-258, limits assumed).
T3 construct: Species read from the list 'human VISTA, PD-1, PD-L1, ...'; also called VTCN1
T3 sequence (looked up): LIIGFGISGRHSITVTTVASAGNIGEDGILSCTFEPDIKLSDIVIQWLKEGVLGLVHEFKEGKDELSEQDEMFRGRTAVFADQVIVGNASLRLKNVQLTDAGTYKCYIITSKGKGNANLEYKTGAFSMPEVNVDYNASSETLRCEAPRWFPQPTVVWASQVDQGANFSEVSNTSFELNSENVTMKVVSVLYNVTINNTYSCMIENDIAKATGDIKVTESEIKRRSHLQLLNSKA
Description: ELISA, plate coated with B7H4.

Experiment [4] addresses T4, B7H6 (ELISA coat) (human, UniProt Q68D85 25-262, limits assumed).
T4 construct: Species read from the list 'human VISTA, PD-1, PD-L1, ...'; also called NCR3LG1
T4 sequence (looked up): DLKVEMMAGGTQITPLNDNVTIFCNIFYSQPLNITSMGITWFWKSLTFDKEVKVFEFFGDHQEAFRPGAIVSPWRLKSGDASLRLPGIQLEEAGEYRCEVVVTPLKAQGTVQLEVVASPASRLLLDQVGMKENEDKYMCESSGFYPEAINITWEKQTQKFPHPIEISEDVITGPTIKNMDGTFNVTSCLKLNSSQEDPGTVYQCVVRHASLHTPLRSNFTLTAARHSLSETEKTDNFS
Description: ELISA, plate coated with B7H6.

Experiment [5] deals with T5, B7H7 (ELISA coat) (human, UniProt Q9UM44 23-344, limits assumed).
T5 construct: Species read from the list 'human VISTA, PD-1, PD-L1, ...'; also called HHLA2
T5 sequence (looked up): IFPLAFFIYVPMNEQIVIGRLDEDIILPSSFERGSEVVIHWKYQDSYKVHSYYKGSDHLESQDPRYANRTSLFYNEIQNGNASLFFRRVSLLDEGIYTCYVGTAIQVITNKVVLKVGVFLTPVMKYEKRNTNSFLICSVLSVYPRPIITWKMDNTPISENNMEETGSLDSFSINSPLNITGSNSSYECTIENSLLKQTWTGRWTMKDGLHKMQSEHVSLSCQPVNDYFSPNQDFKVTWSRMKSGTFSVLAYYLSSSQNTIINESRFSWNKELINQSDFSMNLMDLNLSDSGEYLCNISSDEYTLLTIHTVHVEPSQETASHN
Kind of experiment: ELISA, plate coated with B7H7.

Experiment [6] concerns the target T6, CTLA4 (ELISA coat) (human, UniProt P16410 36-162, limits assumed).
T6 construct: Species read from the list 'human VISTA, PD-1, PD-L1, ...'
Kind of experiment: ELISA, plate coated with CTLA4.

In experiment [7] the target is T7, human PD-L1 (ELISA coat) (human, UniProt Q9NZQ7 19-239). Description: ELISA, plate coated with B7H1 (PDL1).
T7 sequence (Q9NZQ7 19-239 limits assumed): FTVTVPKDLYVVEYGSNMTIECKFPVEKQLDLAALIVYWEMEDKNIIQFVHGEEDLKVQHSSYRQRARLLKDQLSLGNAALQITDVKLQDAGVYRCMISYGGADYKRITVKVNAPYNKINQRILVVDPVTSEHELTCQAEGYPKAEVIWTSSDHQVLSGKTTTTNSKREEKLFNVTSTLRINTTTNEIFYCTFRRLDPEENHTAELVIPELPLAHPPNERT
For experiment [8], the target named is T8, human VISTA polypeptide (ELISA coat) (human, UniProt Q9H7M9 33-194).
T8 construct: Recombinant protein (Sino Biological) coated on ELISA plates; construct not described
Description: ELISA, plate coated with B7H5 (VISTA).

The target in experiment [9] is T1, PD-1 (ELISA coat). Kind of experiment: ELISA, plate coated with PD1. This is another data set of the same source.
In experiment [10] the target is T2, B7H3 (ELISA coat). Description: ELISA, plate coated with B7H3. The source holds these as a separate data set.
Experiment [11] concerns the target T3, B7H4 (ELISA coat). Description: ELISA, plate coated with B7H4. The source holds these as a separate data set.
Experiment [12] addresses T4, B7H6 (ELISA coat). Description: ELISA, plate coated with B7H6. This is another data set of the same source.
For experiment [13], the target named is T5, B7H7 (ELISA coat). Description: ELISA, plate coated with B7H7. This is another data set of the same source.
In experiment [14] the target is T6, CTLA4 (ELISA coat). Kind of experiment: ELISA, plate coated with CTLA4. This is another data set of the same source.
The target in experiment [15] is T7, human PD-L1 (ELISA coat). Kind of experiment: ELISA, plate coated with B7H1 (PDL1). This is another data set of the same source.
Experiment [16] addresses T1, PD-1 (ELISA coat). Kind of experiment: ELISA, plate coated with PD1. The source holds these as a separate data set.
For experiment [17], the target named is T2, B7H3 (ELISA coat). Kind of experiment: ELISA, plate coated with B7H3. The source holds these as a separate data set.
Experiment [18] has as its target T3, B7H4 (ELISA coat). Kind of experiment: ELISA, plate coated with B7H4. This is another data set of the same source.
For experiment [19], the target named is T4, B7H6 (ELISA coat). Kind of experiment: ELISA, plate coated with B7H6. This is another data set of the same source.
Experiment [20] deals with T5, B7H7 (ELISA coat). Description: ELISA, plate coated with B7H7. The source holds these as a separate data set.
Experiment [21] deals with T6, CTLA4 (ELISA coat). Description: ELISA, plate coated with CTLA4. The source holds these as a separate data set.
For experiment [22], the target named is T7, human PD-L1 (ELISA coat). Description: ELISA, plate coated with B7H1 (PDL1). The source holds these as a separate data set.

T1 sequence (Q15116 25-167 limits assumed): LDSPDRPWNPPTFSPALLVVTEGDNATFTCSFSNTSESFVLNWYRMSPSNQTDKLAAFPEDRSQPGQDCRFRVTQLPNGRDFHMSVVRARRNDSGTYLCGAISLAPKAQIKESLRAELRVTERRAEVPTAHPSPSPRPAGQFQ
T6 sequence (P16410 36-162 limits assumed): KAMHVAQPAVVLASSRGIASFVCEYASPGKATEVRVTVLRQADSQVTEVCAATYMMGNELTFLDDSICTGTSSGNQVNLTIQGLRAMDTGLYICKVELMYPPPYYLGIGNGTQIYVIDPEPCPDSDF

B1: anti-VISTA clone V4-C28 IgG1 (antibody, V domains shown)
VH: QVQLQESGPGLVKPSDTLSLTCTVSGYSITSDYTWNWIRQTPGKGLEWIGHITYSGSVSYNPSLRSRVTISRDTSKNQFSLKLSSVTAADTATYSCARALYYPWYFDVWGTGTTVTVSS
VL: EIVLTQSPATLSLSPGERATLSCRASSSVGYIHWYQQKPGQAPRPLIYATSYRATGIPARFSGSGSGTDNTLTISSLEPEDSAVYYCQQWSSYPPITFGGGTKLEVKR
notes: Human IgG1/kappa
Broadly, the EC50 (read off the curve) is the concentration needed to bring the measured effect to its halfway point. A low value points to a more potent agent. Regarding B1, the binding result in experiment [1], in experiment [2], in [3], in experiment [4], in [5] and in experiment [6] was “no binding (tested: log -7.5 (about 3e-8 M))” throughout. The binding result in experiment [7] is given as “no binding (tested: log -7.5 (about 3e-8 M))”. Further, in experiment [8], the “EC50 (read off the curve)” value was approximately 0.02 nM.

B2: anti-VISTA clone V4-C30 IgG1 (antibody, V domains shown)
VH: B1 VH
VL: B1 VL with S51Y
notes: Human IgG1/kappa
Consider B2, for which the binding result in experiment [9], in [10], in [11], in [12], in [13] and in experiment [14] was “no binding (tested: log -7.5 (about 3e-8 M))” throughout. The binding result in experiment [15] was “no binding (tested: log -7.5 (about 3e-8 M))”.

B3: anti-VISTA clone V4-C31 IgG1 (antibody, V domains shown)
VH: B1 VH
VL: B1 VL with S51Y, A54T
notes: Human IgG1/kappa
In the case of B3, the binding result in experiment [16], in experiment [17], in experiment [18], in experiment [19], in experiment [20] and in experiment [21] was “no binding (tested: log -7.5 (about 3e-8 M))” each time. The binding result in [22] is reported as “no binding (tested: log -7.5 (about 3e-8 M))”.
